target: Hck (UniProt P08631); assay: phosphorylation enrichment, bacterial display (enrichment ratio); higher = better substrate or ligand; peptides without Tyr show the background
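Further: 11-residue human phosphosite peptides and single-mutation variants displayed on the E. coli surface, counted by deep sequencing, each peptide's frequency after selection divided by its frequency in the unselected input library; frequency after pTyr selection over input frequency; kinase dosed for 20-30% of maximal phosphorylation in three min.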

Chain of Hck (P08631 whole entry, looked up): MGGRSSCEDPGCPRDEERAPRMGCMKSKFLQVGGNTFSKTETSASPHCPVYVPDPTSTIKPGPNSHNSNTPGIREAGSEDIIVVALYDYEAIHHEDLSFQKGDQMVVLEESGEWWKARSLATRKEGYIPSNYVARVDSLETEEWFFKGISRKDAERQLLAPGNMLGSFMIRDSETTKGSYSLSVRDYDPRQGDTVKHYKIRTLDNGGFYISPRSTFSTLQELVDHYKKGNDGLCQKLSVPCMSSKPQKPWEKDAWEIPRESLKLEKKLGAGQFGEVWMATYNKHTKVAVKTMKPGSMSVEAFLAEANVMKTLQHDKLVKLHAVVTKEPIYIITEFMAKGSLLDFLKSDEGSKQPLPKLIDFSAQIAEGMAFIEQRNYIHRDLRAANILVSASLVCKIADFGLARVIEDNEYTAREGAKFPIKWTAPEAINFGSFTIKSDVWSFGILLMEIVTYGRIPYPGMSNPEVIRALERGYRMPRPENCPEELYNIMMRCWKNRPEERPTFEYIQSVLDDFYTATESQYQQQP

Compared with IMAYFYMCDSA [CASD1_Y382_R386S], RLMLQYDAVVN [SLC25A32_Y152] is higher in phosphorylation enrichment: 0.51 for the first, 0.702 for the second.

Going from RTMPDYTSFNT [EPHB2_Y912_I909M] to FADIAYNYRHG [PAH_Y166], the phosphorylation enrichment falls from 0.591 to 0.462.

First: SREDIYKRNTE [PDE4DIP_Y45_I49T]
Second: RENGPYFASFP [GDAP2_Y487_T489A_YF]
The phosphorylation enrichment of the first is lower: 0.429 for the first, 0.432 for the second.

First: VGTKRYMASEV [ACVRL1_Y375_P378S]
Second: QLRPGYFPIPV [BAG3_Y93_I94F]
The phosphorylation enrichment of the first is lower: 0.398 for the first, 0.466 for the second.

Going from HIAKGYRRDNP [HARS1_Y156_V155G] to KASGKYFAMKI [AKT3_Y173_YF], the phosphorylation enrichment falls from 0.572 to 0.323.

First: KDFNKYVAFIE [KDM4B_Y31_YF]
Second: MGSYNYLGFPR [SPTLC2_Y178_A182P]
The phosphorylation enrichment of the first is lower: 0.505 for the first, 1.39 for the second.

Compared with HNLNYYKKTTN [FGFR3_Y648_D646N], WVFNHYRWIIW [BRCA2_Y2624_YF] is higher in phosphorylation enrichment: 0.258 for the first, 0.403 for the second.

Compared with MSRDVYSTDFF [NTRK2_Y702_YF], NNKKDYFDMFE [SLC26A3_Y526_K521N_YF] is lower in phosphorylation enrichment: 1.28 for the first, 0.504 for the second.

Compared with NWGSPYKSNGC [ZNF347_Y261], FTNRNYDLDFD [MYC_Y12_YF] is higher in phosphorylation enrichment: 0.52 for the first, 0.634 for the second.

First: KQNSLYSFSDH [CCDC82_Y331]
Second: DPLLTHRFPPK [LMNA_Y481_Y481H]
The phosphorylation enrichment of the first is higher: 3.25 for the first, 0.381 for the second.

Going from MFDKEYFSVHN [MET_Y1234_YF] to MSSLFYANALF [HOXB7_Y6_T9A_YF], the phosphorylation enrichment rises from 0.513 to 0.705.

First: GVTLLYFGRDN [ADGRD1_Y85_Y89D_YF]
Second: EHIEFYELDKK [PMM2_Y145_R141H]
The phosphorylation enrichment of the first is higher: 0.516 for the first, 0.445 for the second.

Going from LRRREYQRQDY [PRKRIP1_Y90] to NTVLGYFIGRI [GARS1_Y408], the phosphorylation enrichment falls from 0.621 to 0.495.

Compared with KASIMYPSSNC [CXCL11_Y52_N55S], HMEAVYIDIAD [PITPNA_Y140_V136M] is higher in phosphorylation enrichment: 0.429 for the first, 2.85 for the second.

Compared with KLRMESLSLMH [NCKIPSD_Y660_Y660S], ITLKGYNLSNS [GNPTAB_Y728_K732N] is higher in phosphorylation enrichment: 0.415 for the first, 0.477 for the second.

Compared with QGIFGYHHFMQ [UFSP2_Y287_YF], GFSDPYVKAFL [SYT3_Y470_S474F] is lower in phosphorylation enrichment: 0.692 for the first, 0.466 for the second.

With CEHRGSLYLAI [TEK_Y897_Y897S] the phosphorylation enrichment was 0.606.

target: Jak2 (UniProt O60674); assay: as above
Sequence (O60674 whole entry, looked up): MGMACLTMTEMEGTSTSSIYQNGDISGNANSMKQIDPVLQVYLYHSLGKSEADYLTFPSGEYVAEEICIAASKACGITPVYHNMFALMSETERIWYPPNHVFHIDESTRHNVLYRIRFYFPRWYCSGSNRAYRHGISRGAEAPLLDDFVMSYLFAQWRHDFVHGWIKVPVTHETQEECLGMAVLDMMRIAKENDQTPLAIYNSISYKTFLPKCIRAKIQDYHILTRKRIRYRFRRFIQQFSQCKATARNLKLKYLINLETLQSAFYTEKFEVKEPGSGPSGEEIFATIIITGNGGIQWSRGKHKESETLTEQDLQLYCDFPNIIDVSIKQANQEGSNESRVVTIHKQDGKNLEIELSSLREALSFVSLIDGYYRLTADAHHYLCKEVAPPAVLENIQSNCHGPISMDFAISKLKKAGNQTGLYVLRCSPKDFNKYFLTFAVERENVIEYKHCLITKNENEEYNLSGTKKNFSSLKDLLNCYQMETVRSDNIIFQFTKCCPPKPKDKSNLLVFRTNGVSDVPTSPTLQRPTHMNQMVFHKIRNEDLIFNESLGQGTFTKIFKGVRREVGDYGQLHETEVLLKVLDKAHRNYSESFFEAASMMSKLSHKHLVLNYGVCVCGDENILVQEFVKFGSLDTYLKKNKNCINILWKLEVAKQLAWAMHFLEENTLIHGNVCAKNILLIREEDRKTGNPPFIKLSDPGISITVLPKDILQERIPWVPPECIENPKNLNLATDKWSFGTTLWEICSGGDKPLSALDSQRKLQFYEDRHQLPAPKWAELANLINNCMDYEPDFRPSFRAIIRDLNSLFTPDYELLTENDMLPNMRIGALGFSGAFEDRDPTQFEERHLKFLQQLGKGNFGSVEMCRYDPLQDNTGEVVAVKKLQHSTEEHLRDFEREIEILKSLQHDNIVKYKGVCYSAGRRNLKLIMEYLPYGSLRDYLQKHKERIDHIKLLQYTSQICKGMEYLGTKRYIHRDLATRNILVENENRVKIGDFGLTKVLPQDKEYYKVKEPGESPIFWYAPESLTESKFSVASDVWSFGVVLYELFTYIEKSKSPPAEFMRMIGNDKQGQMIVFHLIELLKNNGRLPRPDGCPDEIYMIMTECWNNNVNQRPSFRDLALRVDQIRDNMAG

Compared with IMAYFYMCDSA [CASD1_Y382_R386S], RLMLQYDAVVN [SLC25A32_Y152] is lower in phosphorylation enrichment: 1.93 for the first, 1.13 for the second.

Going from RTMPDYTSFNT [EPHB2_Y912_I909M] to FADIAYNYRHG [PAH_Y166], the phosphorylation enrichment rises from 0.692 to 0.754.

First: SREDIYKRNTE [PDE4DIP_Y45_I49T]
Second: RENGPYFASFP [GDAP2_Y487_T489A_YF]
The phosphorylation enrichment of the first is lower: 0.81 for the first, 1.27 for the second.

First: VGTKRYMASEV [ACVRL1_Y375_P378S]
Second: QLRPGYFPIPV [BAG3_Y93_I94F]
The phosphorylation enrichment of the first is lower: 0.533 for the first, 0.981 for the second.

Going from HIAKGYRRDNP [HARS1_Y156_V155G] to KASGKYFAMKI [AKT3_Y173_YF], the phosphorylation enrichment rises from 0.409 to 0.508.

First: KDFNKYVAFIE [KDM4B_Y31_YF]
Second: MGSYNYLGFPR [SPTLC2_Y178_A182P]
The phosphorylation enrichment of the first is lower: 0.744 for the first, 3.81 for the second.

Compared with HNLNYYKKTTN [FGFR3_Y648_D646N], WVFNHYRWIIW [BRCA2_Y2624_YF] is higher in phosphorylation enrichment: 0.648 for the first, 1.36 for the second.

Going from MSRDVYSTDFF [NTRK2_Y702_YF] to NNKKDYFDMFE [SLC26A3_Y526_K521N_YF], the phosphorylation enrichment rises from 0.728 to 0.991.

Going from NWGSPYKSNGC [ZNF347_Y261] to FTNRNYDLDFD [MYC_Y12_YF], the phosphorylation enrichment rises from 0.759 to 1.22.

First: KQNSLYSFSDH [CCDC82_Y331]
Second: DPLLTHRFPPK [LMNA_Y481_Y481H]
The phosphorylation enrichment of the first is higher: 0.853 for the first, 0.571 for the second.

First: MFDKEYFSVHN [MET_Y1234_YF]
Second: MSSLFYANALF [HOXB7_Y6_T9A_YF]
The phosphorylation enrichment of the first is higher: 1.46 for the first, 1.24 for the second.

First: GVTLLYFGRDN [ADGRD1_Y85_Y89D_YF]
Second: EHIEFYELDKK [PMM2_Y145_R141H]
The phosphorylation enrichment of the first is higher: 0.937 for the first, 0.746 for the second.

Going from LRRREYQRQDY [PRKRIP1_Y90] to NTVLGYFIGRI [GARS1_Y408], the phosphorylation enrichment rises from 0.289 to 0.735.

Compared with KASIMYPSSNC [CXCL11_Y52_N55S], HMEAVYIDIAD [PITPNA_Y140_V136M] is higher in phosphorylation enrichment: 0.522 for the first, 2.26 for the second.

Going from KLRMESLSLMH [NCKIPSD_Y660_Y660S] to ITLKGYNLSNS [GNPTAB_Y728_K732N], the phosphorylation enrichment falls from 0.644 to 0.547.

First: QGIFGYHHFMQ [UFSP2_Y287_YF]
Second: GFSDPYVKAFL [SYT3_Y470_S474F]
The phosphorylation enrichment of the first is higher: 1.27 for the first, 0.898 for the second.

In the case of CEHRGSLYLAI [TEK_Y897_Y897S], the phosphorylation enrichment is reported as 1.16.

From the supplement of paper PMC10065799, “High-throughput profiling of sequence recognition by tyrosine kinases and SH2 domains using bacterial peptide display” (eLife, 2023)
